Laboratory results reported in US20240034813A1 (Janssen / Centocor, published 2024).

Key:
[1] = target: T1, recombinant human EGFR/ErbB1/HER1 with C-terminal His tag, Cy5-labeled (human, UniProt P00533 25-645, Cy5 label (reacted with Cy5 Mono NHS Ester; sites not stated)); assay: competitive TR-FRET (Eu-amivantamab/Cy5-EGFR), EC50 ratio vs Reference Material; Ex. 11 drug product, 9 months at 5 C
T1 construct: Commercial protein; also called Cy5-EGFR; Cy5-labeled EGFR antigen; not shown: C-terminal His tag
Excerpt: (§1) In this procedure, varying concentrations of unlabeled bispecific EGFR-cMet antibody sample compete with donor fluorophore (Europium (Eu) chelate) labeled bispecific EGFR-cMet antibody for binding to an acceptor fluorophore (Cy5)-labeled EGFR antigen. Excitation of the donor fluorophore results in a transfer of energy to the bound acceptor fluorophore (FRET process). The resultant FRET is detected by emission of light at 665 nm using a microplate reader capable of measuring time-resolved fluorescence. Sample dose response curves are compared to the RM.
(§2) EGFR Binding Materials and Methods. Certified commercial EGFR, a recombinant human EGFR/ErbB1/HER1 with C-terminal His tag is reacted with certified commercial Cy5 Mono NHS Ester to produce Cy5-labeled EGFR. Validated bispecific EGFR-cMet antibody is reacted with certified commercial Europium (Eu) chelate to produce Eu-labeled bispecific EGFR-cMet antibody. […] Fluorescence is then measured by spectrophotometry at 665 nm, plotted against antibody concentration and analyzed by a four-parameter logistic model. The antibody concentration required to obtain half of the maximum fluorescence response (EC50) is determined for RM, assay control and samples. The potencies of assay control and samples are calculated based on the ratio of the sample (or control) and RM EC50 values and reported as a percentage activity relative to the RM.

[2] = target: T2, recombinant cMet/HGFR with c-terminal His-tag, Cy5-labeled (UniProt P08581 25-932, limits assumed, Cy5 label (reacted with Cy5 Mono NHS Ester; sites not stated)); assay: competitive TR-FRET (Eu-amivantamab/Cy5-c-MET), EC50 ratio vs Reference Material; Ex. 2 Formulation 1 (10 mM histidine), 1 month at 40 C
T2 construct: Commercial protein; also called Cy5-c-MET; Cy5-labeled c-MET antigen; not shown: C-terminal His-tag
Excerpt: as §1, with “(Cy5)-labeled c-MET” for “(Cy5)-labeled EGFR”, “the Reference Material (RM).” for “the RM.”
as §2, with “c-MET Binding” for “EGFR Binding”, “commercial cMet,” for “commercial EGFR,”, “recombinant cMet/HGFR” for “recombinant human EGFR/ErbB1/HER1”, “with c-terminal His-tag” for “with C-terminal His tag”, “Cy5-labeled c-MET.” for “Cy5-labeled EGFR.”, “produce Eu labeled” for “produce Eu-labeled”

[3] = target: T2, recombinant cMet/HGFR with c-terminal …; assay: competitive TR-FRET (Eu-amivantamab/Cy5-c-MET), EC50 ratio vs Reference Material; Ex. 2 Formulation 2 (50 mM histidine), 1 month at 40 C
Excerpt: as §1, with “(Cy5)-labeled c-MET” for “(Cy5)-labeled EGFR”, “the Reference Material (RM).” for “the RM.”
as §2, with “c-MET Binding” for “EGFR Binding”, “commercial cMet,” for “commercial EGFR,”, “recombinant cMet/HGFR” for “recombinant human EGFR/ErbB1/HER1”, “with c-terminal His-tag” for “with C-terminal His tag”, “Cy5-labeled c-MET.” for “Cy5-labeled EGFR.”, “produce Eu labeled” for “produce Eu-labeled”

[4] = target: T2, recombinant cMet/HGFR with c-terminal …; assay: competitive TR-FRET (Eu-amivantamab/Cy5-c-MET), EC50 ratio vs Reference Material; Ex. 12 drug product with rHuPH20, 9 months at 5 C
Excerpt: as §1, with “(Cy5)-labeled c-MET” for “(Cy5)-labeled EGFR”, “the Reference Material (RM).” for “the RM.”
as §2, with “c-MET Binding” for “EGFR Binding”, “commercial cMet,” for “commercial EGFR,”, “recombinant cMet/HGFR” for “recombinant human EGFR/ErbB1/HER1”, “with c-terminal His-tag” for “with C-terminal His tag”, “Cy5-labeled c-MET.” for “Cy5-labeled EGFR.”, “produce Eu labeled” for “produce Eu-labeled”

[5] = target: T1, recombinant human EGFR/ErbB1/HER1 with …; assay: competitive TR-FRET (Eu-amivantamab/Cy5-EGFR), EC50 ratio vs Reference Material; Ex. 2 Formulation 2 (50 mM histidine), T0, 40 C table
Excerpt: as §1, §2

[6] = target: T1, recombinant human EGFR/ErbB1/HER1 with …; assay: competitive TR-FRET (Eu-amivantamab/Cy5-EGFR), EC50 ratio vs Reference Material; Ex. 11 drug product, 0 months, 40 C table
Excerpt: as §1, §2

[7] = target: T2, recombinant cMet/HGFR with c-terminal …; assay: competitive TR-FRET (Eu-amivantamab/Cy5-c-MET), EC50 ratio vs Reference Material; Ex. 12 drug product with rHuPH20, 5 months at 5 C
Excerpt: as §1, with “(Cy5)-labeled c-MET” for “(Cy5)-labeled EGFR”, “the Reference Material (RM).” for “the RM.”
as §2, with “c-MET Binding” for “EGFR Binding”, “commercial cMet,” for “commercial EGFR,”, “recombinant cMet/HGFR” for “recombinant human EGFR/ErbB1/HER1”, “with c-terminal His-tag” for “with C-terminal His tag”, “Cy5-labeled c-MET.” for “Cy5-labeled EGFR.”, “produce Eu labeled” for “produce Eu-labeled”

[8] = target: T1, recombinant human EGFR/ErbB1/HER1 with …; assay: competitive TR-FRET (Eu-amivantamab/Cy5-EGFR), EC50 ratio vs Reference Material; Ex. 11 drug product, 6 months at 5 C
Excerpt: as §1, §2

EGFR Binding activity relative to Reference Material (%) [1]: 90%
cMET Binding % activity relative to RM [2]: 96%
cMET Binding % activity relative to RM [3]: 90%
cMET Binding activity relative to Reference Material (%) [4]: 106%
EGFR Binding % activity relative to RM [5]: 103%
EGFR Binding activity relative to Reference Material (%) [6]: 89%
cMET Binding activity relative to Reference Material (%) [7]: 100%
EGFR Binding activity relative to Reference Material (%) [8]: 84%
B1: amivantamab (bispecific antibody, human IgG1, kappa)
heavy 1: not shown
light 1: not shown
heavy 2: not shown
light 2: DIQMTQSPSSVSASVGDRVTITCRASQGISNWLAWFQHKPGKAPKLLIYAASSLLSGVPSRFSGSGSGTDFTLTISSLQPEDFATYYCQQANSFPITFGQGTRLEIKRTVAAPSVFIFPPSDEQLKSGTASVVCLLNNFYPREAKVQWKVDNALQSGNSQESVTEQDSKDSTYSLSSTLTLSKADYEKHKVYACEVTHQGLSSPVTKSFNRGEC
notes: The samples tested were high concentration (160 mg/mL) formulations, fresh or stored or stressed; also called JNJ-61186372; bispecific EGFR-cMet antibody
